Results as given in PMC11327020.

Target: CXCR4 on THP-1 cells (human (endogenous in THP-1)) (UniProt P61073)
Chain of UniProt P61073 (P61073 whole entry): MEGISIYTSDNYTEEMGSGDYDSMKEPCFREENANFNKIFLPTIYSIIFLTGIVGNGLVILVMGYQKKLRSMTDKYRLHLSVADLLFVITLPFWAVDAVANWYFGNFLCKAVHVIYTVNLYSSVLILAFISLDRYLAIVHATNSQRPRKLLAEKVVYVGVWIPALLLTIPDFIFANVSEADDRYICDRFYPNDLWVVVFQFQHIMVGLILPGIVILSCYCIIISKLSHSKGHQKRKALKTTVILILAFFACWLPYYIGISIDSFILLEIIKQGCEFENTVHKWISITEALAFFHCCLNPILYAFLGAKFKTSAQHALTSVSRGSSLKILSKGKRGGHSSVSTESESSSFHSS

CXCR4 internalization (loss of surface CXCR4 by flow cytometry) in THP-1 cells, 100 ng/mL SDF-1 for 15 minutes; uncut SDF-1, and SDF-1 pre-incubated with COAM 100x before protease at similar levels (% of receptor internalization): 25
Substance: Recombinant human stromal cell-derived factor-1 (SDF-1/CXCL12), intact (from UniProt P48061 22-93) (ligand)
